The values below come from patent publication US20240059799A1 (Pfizer, published 2024).

The term koff denotes the rate constant with which the complex falls apart. In general, kon refers to the rate constant with which the complex forms. Usually Kd stands for the equilibrium constant for the complex coming apart.

One experiment addresses T1, human IL-23 (human, UniProt P29460 23-328; Q9NPF7 20-189).
T1 construct: also called recombinant human IL-23 (p40/p19)
T1 sequence 1: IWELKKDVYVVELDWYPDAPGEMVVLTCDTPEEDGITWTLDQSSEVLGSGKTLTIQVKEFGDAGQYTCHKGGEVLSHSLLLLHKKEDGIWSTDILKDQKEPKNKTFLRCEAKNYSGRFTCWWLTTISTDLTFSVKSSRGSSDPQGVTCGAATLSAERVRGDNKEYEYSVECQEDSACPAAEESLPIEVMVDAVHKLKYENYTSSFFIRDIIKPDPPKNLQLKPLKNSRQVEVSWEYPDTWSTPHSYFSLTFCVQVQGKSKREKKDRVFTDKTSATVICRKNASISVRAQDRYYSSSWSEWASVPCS
T1 sequence 2: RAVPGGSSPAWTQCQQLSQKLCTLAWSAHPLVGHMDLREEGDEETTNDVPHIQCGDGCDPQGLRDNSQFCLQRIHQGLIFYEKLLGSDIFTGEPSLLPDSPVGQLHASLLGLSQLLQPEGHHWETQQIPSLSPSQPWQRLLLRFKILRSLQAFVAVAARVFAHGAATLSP
Kind of experiment: SPR, 37 C; antibody captured by anti-human Fc, human IL-23 injected. The procedure: (§1) SPR was utilized to determine if the affinity constants of each arm of the bispecific variants binding human IL-23, containing the p40 subunit, and human TL1A were the same for each bispecific approach. For the analysis of the p40 binding arm, kinetic assays were conducted at 37° C. using a collection rate of 10 Hz on a Biacore™ 8 K+ instrument (GE Healthcare). An anti-human IgG antibody (anti-human Fc, GE Healthcare, 22-0648-88) was amine coupled to all four flow cells of a carboxymethylated dextran coated sensor chip (GE Healthcare,) using the manufacturer's recommended protocol. […] For the analysis of the TL1A binding arm, kinetic assays were conducted at 37° C. using a collection rate of 10 Hz on a Biacore™ T200 instrument (GE Healthcare).
(§2) As described above in EXAMPLE 12, SPR was utilized to determine if the affinity constants of each arm of the bispecific variants binding human IL-23, containing the p40 subunit, and human TL1A were the same for each bispecific variant.
A general note: In SPR one partner is held on a chip, and binding of the other changes the refractive index at the surface.

A further experiment deals with T2, recombinant human TL1A (human, UniProt O95150 71-251).
T2 construct: TL1A is described as a homotrimer; Biotinylated for SPR capture; also called TNFSF15
T2 chain: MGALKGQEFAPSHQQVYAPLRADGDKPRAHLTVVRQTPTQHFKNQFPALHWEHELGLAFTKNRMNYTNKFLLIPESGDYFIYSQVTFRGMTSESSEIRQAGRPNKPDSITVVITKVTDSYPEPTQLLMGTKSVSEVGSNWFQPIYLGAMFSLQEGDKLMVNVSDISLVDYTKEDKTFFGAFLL
The experiment is described as follows: SPR, 37 C; biotinylated human TL1A captured on Biotin CAPture chip, antibody injected. As for the experimental part:
as §1, §2

B1: p40TL1A-0033 bispecific antibody (bispecific antibody, human IgG1, kappa)
heavy: EVQLVQSGAEVKKPGESLKISCKGSGYSFTTYWLGWVRQMPGKGLDWIGIMSPVDSDIRYSPSFQGQVTMSVDKSITTAYLQWNSLKASDTAMYYCARRRPGQGYFDFWGQGTLVTVSSASTKGPSVFPLAPSSKSTSGGTAALGCLVKDYFPEPVTVSWNSGALTSGVHTFPAVLQSSGLYSLSSVVTVPSSSLGTQTYICNVNHKPSNTKVDKKVEPKSCDKTHTCPPCPAPEAAGAPSVFLFPPKPKDTLMISRTPEVTCVVVDVSHEDPEVKFNWYVDGVEVHNAKTKPREEQYNSTYRVVSVLTVLHQDWLNGKEYKCKVSNKALPAPIEKTISKAKGQPREPQVCTLPPSREEMTKNQVSLWCLVKGFYPSDIAVEWESNGQPENNYKTTPPVLDSDGSFFLYSKLTVDKSRWQQGNVFSCSVLHEALHSHYTQKSLSLSPGK
light: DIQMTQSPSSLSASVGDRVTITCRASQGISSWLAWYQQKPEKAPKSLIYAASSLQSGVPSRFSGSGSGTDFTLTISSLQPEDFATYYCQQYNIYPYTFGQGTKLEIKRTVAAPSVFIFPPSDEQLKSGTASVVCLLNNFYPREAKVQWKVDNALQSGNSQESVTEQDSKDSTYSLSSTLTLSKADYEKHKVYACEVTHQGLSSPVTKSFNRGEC
chain 1: not shown
chain 2: QVQLVQSGAEVKKPGASVKVSCKASGYDYTYYGISWVRQAPGQGLEWMGWISTYNTGTHYAPSLQGRVTMTTDTSTSTAYMELRSLRSDDTAVYYCARESYYGSGAFRGGMDVWGQGTTVTVSSASTKGPSVFPLAPSSKSTSGGTAALGCLVKDYFPEPVTVSWNSGALTSGVHTFPAVLQSSGLYSLSSVVTVPSSSLGTQTYICNVNHKPSNTKVDKKVEPKSC
notes: Single cell KiH, modified Fd format; IgG1 effector-function-minimized Fc with LS mutations
Take B1: in the experiment with human IL-23, the koff came out at 0.00056 s⁻¹ and the kon amounted to 2.28e+06 M⁻¹ s⁻¹. Also, in the experiment with recombinant human TL1A, the Kd is 0.622 nM, the koff stood at 8.21e-05 s⁻¹ and the kon was determined as 132000 M⁻¹ s⁻¹.
